From paper PMC4187731, “WWP2-WWP1 Ubiquitin Ligase Complex Coordinated by PPM1G Maintains the Balance between Cellular p73 and ΔNp73 Levels” (Molecular and Cellular Biology, 2014) come the findings set out here.

The target in this experiment is T1, MBP-WWP2 (UniProt O00308 1-870).
T1 construct: WWP2; also called bacterially purified WWP2; source: bacterially expressed; bacterially purified (methods, results) or bacterial cell lysate
Nature of the experiment: pull-down; GST, GST-p73 or GST-ΔNp73 on glutathione-Sepharose beads incubated with MBP-WWP2 for 1 h at 4°C; immunoblot with MBP antibody. To be noted: both partners purified. In general terms: Immunoblotting shows a protein as a band on a membrane.

T1 sequence (O00308 whole entry): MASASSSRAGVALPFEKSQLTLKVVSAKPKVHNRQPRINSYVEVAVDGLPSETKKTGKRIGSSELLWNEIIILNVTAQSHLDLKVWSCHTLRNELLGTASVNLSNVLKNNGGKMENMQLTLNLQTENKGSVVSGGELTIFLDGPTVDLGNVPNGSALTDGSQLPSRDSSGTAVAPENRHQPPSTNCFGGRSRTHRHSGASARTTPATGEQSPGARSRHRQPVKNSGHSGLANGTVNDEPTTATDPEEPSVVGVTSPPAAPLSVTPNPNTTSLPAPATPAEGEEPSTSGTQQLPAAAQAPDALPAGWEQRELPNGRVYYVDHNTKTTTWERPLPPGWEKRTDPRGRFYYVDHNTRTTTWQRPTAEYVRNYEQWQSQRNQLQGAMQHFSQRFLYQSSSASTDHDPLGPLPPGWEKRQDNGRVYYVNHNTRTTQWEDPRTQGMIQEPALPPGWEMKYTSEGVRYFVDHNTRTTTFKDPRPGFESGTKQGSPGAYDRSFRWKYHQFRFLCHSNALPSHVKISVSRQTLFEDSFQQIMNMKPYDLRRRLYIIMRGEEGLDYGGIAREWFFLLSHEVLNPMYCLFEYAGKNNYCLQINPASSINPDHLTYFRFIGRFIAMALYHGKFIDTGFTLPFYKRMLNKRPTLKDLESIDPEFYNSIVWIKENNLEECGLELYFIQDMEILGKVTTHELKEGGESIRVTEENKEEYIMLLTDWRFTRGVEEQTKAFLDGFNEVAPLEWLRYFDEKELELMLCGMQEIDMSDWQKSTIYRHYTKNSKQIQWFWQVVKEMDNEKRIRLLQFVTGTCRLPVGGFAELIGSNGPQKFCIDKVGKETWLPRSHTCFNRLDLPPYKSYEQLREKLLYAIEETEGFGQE

B1: GST-ΔNp73 (natural protein, UniProt O15350-8 1-587, looked up)
chain: MLYVGDPARHLATAQFNLLSSTMDQMSSRAASASPYTPEHAASVPTHSPYAQPSSTFDTMSPAPVIPSNTDYPGPHHFEVTFQQSSTAKSATWTYSPLLKKLYCQIAKTCPIQIKVSTPPPPGTAIRAMPVYKKAEHVTDVVKRCPNHELGRDFNEGQSAPASHLIRVEGNNLSQYVDDPVTGRQSVVVPYEPPQVGTEFTTILYNFMCNSSCVGGMNRRPILIIITLEMRDGQVLGRRSFEGRICACPGRDRKADEDHYREQQALNESSAKNGAASKRAFKQSPPAVPALGAGVKKRRHGDEDTYYLQVRGRENFEILMKLKESLELMELVPQPLVDSYRQQQQLLQRPSHLQPPSYGPVLSPMNKVHGGMNKLPSVNQLVGQPPPHSSAATPNLGPVGPGMLNNHGHAVPANGEMSSSHSAQSMVSGSHCTPPPPYHADPSLVSFLTGLGCPNCIEYFTSQGLQSIYHLQNLTIEDLGALKIPEQYRMTIWRGLQDLKQGHDYSTAQQLLRSSNAATISIGGSGELQRQRVMEAVHFRVRHTITIPNRGGPGGGPDEWADFGFDLPDCKARKQPIKEEFTEAEIH
For the molecule B1, the binding result is “binds”.

B2: GST-p73 (natural protein, UniProt O15350 1-636, looked up)
chain: MAQSTATSPDGGTTFEHLWSSLEPDSTYFDLPQSSRGNNEVVGGTDSSMDVFHLEGMTTSVMAQFNLLSSTMDQMSSRAASASPYTPEHAASVPTHSPYAQPSSTFDTMSPAPVIPSNTDYPGPHHFEVTFQQSSTAKSATWTYSPLLKKLYCQIAKTCPIQIKVSTPPPPGTAIRAMPVYKKAEHVTDVVKRCPNHELGRDFNEGQSAPASHLIRVEGNNLSQYVDDPVTGRQSVVVPYEPPQVGTEFTTILYNFMCNSSCVGGMNRRPILIIITLEMRDGQVLGRRSFEGRICACPGRDRKADEDHYREQQALNESSAKNGAASKRAFKQSPPAVPALGAGVKKRRHGDEDTYYLQVRGRENFEILMKLKESLELMELVPQPLVDSYRQQQQLLQRPSHLQPPSYGPVLSPMNKVHGGMNKLPSVNQLVGQPPPHSSAATPNLGPVGPGMLNNHGHAVPANGEMSSSHSAQSMVSGSHCTPPPPYHADPSLVSFLTGLGCPNCIEYFTSQGLQSIYHLQNLTIEDLGALKIPEQYRMTIWRGLQDLKQGHDYSTAQQLLRSSNAATISIGGSGELQRQRVMEAVHFRVRHTITIPNRGGPGGGPDEWADFGFDLPDCKARKQPIKEEFTEAEIH
notes: also called glutathione S-transferase (GST)–p73
Regarding B2, the binding result is “binds”.
